Patent publication US12102667B2, “Polypeptides and antibiotics against gram-negative bacterium comprising the same” (priority 2021, dated 2024)

Experiments:
K. pneumoniae = experiment: Antibacterial activity analysis (colony count after 2 hours in buffer); format: cell-based, Klebsiella pneumoniae; conditions: 2 μM
Procedure: (§1) The antibacterial activity of the purified protein was tested for E. coli and various K. pneumoniae strains. The bacterium were grown to an exponential phase (OD600=0.5) and harvested by centrifugation at 12,000×g for 3 minutes. Then, the pellets were washed with reaction buffer solution (20 mM Tris-HCl, pH 7.5) and diluted to about 10^6 cells/ml in the buffer solution. Then, 100 μl bacterial suspension was mixed with the purified endolysin of 100 μl in the reaction buffer solution and incubated at 37° C. for 2 hours. Finally, the mixture was diluted with PBS and loaded on an LB plate. After culturing at 37° C. overnight, the bacterial colonies were counted. All the analysis was performed in triplicate.
(§2) The same reaction was performed for the selected subject bacterium in 20 mM HEPES-NaOH, 150 mM NaCl [pH 7.4], and the unique antibacterial activity of Tris and dependence of endolysin for turgor pressure were excluded (FIG. 10a and FIG. 10b). […] The bacterial cells grown geometrically were cultured with 2 μM endolysin in low tonicity buffers (20 mM Tris-HCl, pH 7.5 or 20 mM HEPES, pH 7.5) or high tonicity buffers (buffer solution comprising 150 mM NaCl) at 37° C. for 2 hours. The cells treated with storage buffer solution (20 mM Tris-HCl, pH 7.5, 150 mM NaCl buffer solution (pH 7.5)) were used as a negative control group. The dotted line represents the detection limit (1 Log CFU/ml).

E. coli [1] = experiment: as above; format: cell-based, Escherichia coli; conditions: 2 μM
Procedure: as §1, §2
(§3) For this, endolysin EC340 at a concentration of 2 μM and each test bacterium were added to reaction buffer (20 mM Tris-Cl, pH 7.5) so that the final concentration was to be 200 μl, and were left at 37° C. for 2 hours. After 2 hours, the number of colonies of Acinetobacter baumannii, Pseudomonas aeruginosa and Escherichia coli was confirmed, and the result was shown in FIG. 3.

E. coli [2] = experiment: Checkerboard assay (MIC in combination, FIC index); format: cell-based, Escherichia coli; conditions: E. coli ATCC8738
Procedure: LNT113 was vertically diluted 2-fold and the antibiotic was serially diluted horizontally in a 96-well plate. Bacterium at a concentration of 10^6 CFU/ml were added to each well in a CAA medium. […] The fractional inhibitory concentration (FIC) for the LNT113 or antibiotic was calculated by dividing the MIC of two drugs by combining it with the MIC of each drug alone. […] The FICI was considered as a synergistic effect ≤0.5, an additive >0.5 ˜≤1, an independent effect (indifference)>1.0 ˜≤2, and an antagonistic effect (antagonism) >2.

E. coli ATCC 8739 = experiment: Zymogram assay; format: biochemical, Escherichia coli; conditions: 3 μg purified endolysin, gel with autoclaved E. coli ATCC 8739
Procedure: Zymogram assay was performed with some modifications of the previously described method (Khakhum et al., 2016). In other words, an overnight culture of E. coli ATCC 8739 was harvested, washed with phosphate buffered solution (PBS) once, and then harvested by centrifugation at 4,000×g for 15 minutes. Then, the pellets were resuspended in 3 ml of deionized water. The cells were autoclaved and added to a 15% SDS-PAGE gel prior to polymerization. Then, 3 μg of purified endolysin (EC340, mtEC340 or LNT113) was mixed with 2× sample buffer (0.5 mM Tris-HCl, pH 6.8, 20% glycerol, 0.2% bromophenol blue) and loaded on SDS-PAGE. After electrophoresis, the gel was washed with deionized water for 1 hour and incubated in reaction buffer (1% Triton X-100, 20 mM Tris-HCl, pH 7.5) at a room temperature.

[3] = test system: Acinetobacter baumannii (ATCC19606); experiment: Killing activity of endolysin, in vitro test; format: cell-based; conditions: 2 μM, 37° C., 2 hours, 20 mM Tris-Cl pH 7.5
Procedure: as §3

[4] = test system: Pseudomonas aeruginosa (ATCC 13388); experiment: Killing activity of endolysin, in vitro test; format: cell-based; conditions: 2 μM, 37° C., 2 hours, 20 mM Tris-Cl pH 7.5
Procedure: as §3

B1: EC340: endolysin of E. coli bacteriophage PBEC131 (EC340-M-11-12), 162 amino acids (protein)
chain: VSRNISNNGIKFTAAFEGFRGTAYRATPNEKYLTIGYGHYGPDVTPGKTITPGQGLLLLNRDMAKAVAAVDAAAHHSLTQAQFDAVCDLVYNAGAGVIAATTGTGKALRSGDIATLRAKLALFINQNGKPLLGLRRRTAGRLALFDGKPWQEAEAIGRAVKG
modifications: synthetic_EC340
notes: endolysin of E. coli bacteriophage PBEC131 (EC340-M-11-12), 162 amino acids
K. pneumoniae; K. pneumoniae ATCC700603, KCTC2208, CCARM10143, F85, 2 hours, Tris-HCl pH 7.5
  antibacterial activity (number of bacterium): excellent antibacterial activity
K. pneumoniae; K. pneumoniae KCTC 2208, Tris or Hepes buffer with 150 mM NaCl
  effect of adding NaCl on antibacterial activity: almost inactivated
E. coli [1]; E. coli ATCC8739, ATCC25922, CCARM1A746, CCARM1B684, 2 hours, Tris-HCl pH 7.5
  antibacterial activity (number of bacterium): excellent antibacterial activity
E. coli [1]; E. coli ATCC 8739, Tris or Hepes buffer with 150 mM NaCl
  effect of adding NaCl on antibacterial activity: almost inactivated
E. coli [1]; Escherichia coli (ATCC 8739), 37° C., 2 hours, 20 mM Tris-Cl pH 7.5
  killing activity: had the killing activity
E. coli [2]; Colistin 0
  MIC of endolysin combined with colistin: EC340: >128 µg/mL
E. coli [2]; Colistin 0.0625
  MIC of endolysin combined with colistin: EC340: 32 µg/mL
E. coli [2]; Colistin 0.125
  MIC of endolysin combined with colistin: EC340: 16 µg/mL
E. coli [2]; Colistin 0.25
  MIC of endolysin combined with colistin: EC340: <2 µg/mL
E. coli ATCC 8739
  enzymatic activity in zymogram: enzymatic activity was observed
[3]
  killing activity: had the killing activity
[4]
  killing activity: had the killing activity
